Results from US6084068, “Elongin A and C functional domains” (Oklahoma Medical Research Foundation, dated 2000).

B1: Elongin A internal deletion mutant Δ691-730 (other)
chain: MAAESALQVVEKLQARLAANPDPKKLLKYLKKLSVLPITVDILVETGVGKTVNSFRKHEQVGNFARDLVAQWKKLVPVERNNEAEDQDFEKSNSRKRPRDVPQQEEEAEGNYQESWQASGSQPYSPEHRQKKHRKLPELERPHKVAHGHERRDERKRCHKVSPPYSSDPESSDYGHVQSPPPSSPHQMYTDLSRSPEMDQEPIVSHPKPGKVHSNTFQDRLGVSHLGEHQGKGAVSQNKPHKSSHKEKRPVDARGDEKSSVMGREKSHKASSKEESRRLLSEDSAKEKLPSSVVKKEKDREGNSLKKKLSPALDVASDNHFKKPKHKDSEKIKSDKNKQSVDSVDSGRGTGDPLPRAKDKVPNNLKAQEGKVRTNSDRKSPGSLPKVEEMDMDDEFEQPTMSFESYLSYDQPRKKKKKVVKTSGTALGEKGLKKKDSKSTSKNLNSAQKLPKANENKSDKLQPAGAEPTRPRKVPTDVLPALPDIPLPAIQTNYRPLPSLELISSFQPKRKAFSSPQEEEEAGFTGRRMNSKMQVYSGSKCAYLPKMMTLHQQCIRVLKNNIDSIFEVGGVPYSVLEPVLERCTPDQLYRIEECNHVLIEETDQLWKVHCHRDFKEERPEEYESWREMYLRLQDAREQRLRLLTNNIRSAHANKPKGRQAKMAFVNSVAKPPRDVRRRQEKFGTGGAAVPSSAHLAPVASSSVSYDPRKPAVKKIAPMMAKTIKAFKNRFSRR
B2: Elongin A mutant composed of residues 500 to 730 (other)
chain: LELISSFQPKRKAFSSPQEEEEAGFTGRRMNSKMQVYSGSKCAYLPKMMTLHQQCIRVLKNNIDSIFEVGGVPYSVLEPVLERCTPDQLYRIEECNHVLIEETDQLWKVHCHRDFKEERPEEYESWREMYLRLQDAREQRLRLLTNNIRSAHANKPKGRQAKMAFVNSVAKPPRDVRRRQEKFGTGGAAVPEKVRIKPAPYTTGSSHVPASNSSSSFHSSPEELAYEGPST
B3: Elongin A mutant composed of residues 500 to 700 (other)
chain: LELISSFQPKRKAFSSPQEEEEAGFTGRRMNSKMQVYSGSKCAYLPKMMTLHQQCIRVLKNNIDSIFEVGGVPYSVLEPVLERCTPDQLYRIEECNHVLIEETDQLWKVHCHRDFKEERPEEYESWREMYLRLQDAREQRLRLLTNNIRSAHANKPKGRQAKMAFVNSVAKPPRDVRRRQEKFGTGGAAVPEKVRIKPAPY
B4: Elongin A internal deletion mutant Δ545-548 (other)
chain: MAAESALQVVEKLQARLAANPDPKKLLKYLKKLSVLPITVDILVETGVGKTVNSFRKHEQVGNFARDLVAQWKKLVPVERNNEAEDQDFEKSNSRKRPRDVPQQEEEAEGNYQESWQASGSQPYSPEHRQKKHRKLPELERPHKVAHGHERRDERKRCHKVSPPYSSDPESSDYGHVQSPPPSSPHQMYTDLSRSPEMDQEPIVSHPKPGKVHSNTFQDRLGVSHLGEHQGKGAVSQNKPHKSSHKEKRPVDARGDEKSSVMGREKSHKASSKEESRRLLSEDSAKEKLPSSVVKKEKDREGNSLKKKLSPALDVASDNHFKKPKHKDSEKIKSDKNKQSVDSVDSGRGTGDPLPRAKDKVPNNLKAQEGKVRTNSDRKSPGSLPKVEEMDMDDEFEQPTMSFESYLSYDQPRKKKKKVVKTSGTALGEKGLKKKDSKSTSKNLNSAQKLPKANENKSDKLQPAGAEPTRPRKVPTDVLPALPDIPLPAIQTNYRPLPSLELISSFQPKRKAFSSPQEEEEAGFTGRRMNSKMQVYSGSKCAYLTLHQQCIRVLKNNIDSIFEVGGVPYSVLEPVLERCTPDQLYRIEECNHVLIEETDQLWKVHCHRDFKEERPEEYESWREMYLRLQDAREQRLRLLTNNIRSAHANKPKGRQAKMAFVNSVAKPPRDVRRRQEKFGTGGAAVPEKVRIKPAPYTTGSSHVPASNSSSSFHSSPEELAYEGPSTSSAHLAPVASSSVSYDPRKPAVKKIAPMMAKTIKAFKNRFSRR

Target: T1, Elongin BC complex (wild type rat Elongin B and C) (rat, UniProt P62870)
T1 chain 1: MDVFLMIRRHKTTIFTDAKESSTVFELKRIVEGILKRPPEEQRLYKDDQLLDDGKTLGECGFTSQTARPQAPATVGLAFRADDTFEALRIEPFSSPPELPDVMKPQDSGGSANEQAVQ
T1 chain 2: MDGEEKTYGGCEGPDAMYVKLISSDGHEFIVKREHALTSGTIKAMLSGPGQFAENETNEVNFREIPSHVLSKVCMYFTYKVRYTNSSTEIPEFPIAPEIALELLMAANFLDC
Experiment: refolded with wild type Elongin B and C; TSK SP-NPR HPLC, SDS-PAGE, silver staining

Binding result, binds:
B1, B2, B3, B4
